Measurements taken from patent US20130251728A1 (Regeneron, published 2013).

T1: hGCGR-mmh (human)
T1 construct: also called REGN547; monovalent hGCGR
T1 chain: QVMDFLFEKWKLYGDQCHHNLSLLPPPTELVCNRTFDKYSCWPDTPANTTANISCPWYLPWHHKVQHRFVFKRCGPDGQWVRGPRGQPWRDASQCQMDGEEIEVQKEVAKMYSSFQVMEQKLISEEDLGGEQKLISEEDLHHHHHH

T2: monkey (Macaca fascicularis) GCGR (full-length, on HEK293 reporter cells) (monkey (Macaca fascicularis), UniProt P47871 26-477 (human entry))
T2 chain: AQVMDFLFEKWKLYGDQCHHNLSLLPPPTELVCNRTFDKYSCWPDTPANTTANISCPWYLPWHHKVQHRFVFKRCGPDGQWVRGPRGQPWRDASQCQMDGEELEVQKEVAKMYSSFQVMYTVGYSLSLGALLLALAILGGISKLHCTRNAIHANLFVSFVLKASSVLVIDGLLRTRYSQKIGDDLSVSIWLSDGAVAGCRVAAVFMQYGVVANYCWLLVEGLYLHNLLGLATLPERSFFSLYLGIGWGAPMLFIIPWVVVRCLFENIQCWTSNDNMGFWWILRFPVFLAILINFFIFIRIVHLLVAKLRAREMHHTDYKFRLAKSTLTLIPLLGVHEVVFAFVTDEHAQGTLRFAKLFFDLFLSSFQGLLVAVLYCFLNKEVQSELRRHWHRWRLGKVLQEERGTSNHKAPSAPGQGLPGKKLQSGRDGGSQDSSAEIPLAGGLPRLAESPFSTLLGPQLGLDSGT


Columns and labels:
hGCGR-hFc [1] = molecular target: T3, hGCGR-hFc (human); assay: SPR Biacore T100, 25C, mAb captured, antigen flowed
T3 construct: also called REGN316
Description: (§1) Measurements were conducted on a T100 Biacore instrument. Antibodies were captured onto the Biacore sensor chip surface via a covalently-linked anti-human kappa antibody capture surface, and the soluble GCGR proteins were applied to the surface either in a monovalent (hGCGR expressed with a myc-myc-hexa-histidine C-terminal tag) or bivalent (hGCGR and MfGCGR expressed with an N-terminal Fc fusion) format.
(§2) Binding dissociation equilibrium constants and dissociative half-lives were calculated from the kinetic rate constants as: KD=kd/kₐ; t_{1/2}=(In2/kd).

hGCGR-mmh [2] = molecular target: T1, hGCGR-mmh; assay: as above
Description: as §1, §2

mfGCGR-hFc [3] = molecular target: T4, mfGCGR-hFc (cynomolgus monkey (Macaca fascicularis)); assay: as above
T4 construct: also called mfGCGR-N-terminal hFc
Description: as §1, §2

[4] = molecular target: human GCGR (full-length, on HEK293 reporter cells) (human, UniProt P47871 27-477); assay: cell-based or functional assay
[5] = molecular target: rat GCGR (full-length, on transiently transfected HEK293 reporter cells) (rat, UniProt P30082 27-485); assay: cell-based or functional assay
[6] = molecular target: T2, monkey (Macaca fascicularis) GCGR …; assay: cell-based or functional assay
[7] = molecular target: mouse GCGR (full-length, on HEK293 reporter cells) (mouse, UniProt Q61606 27-485); assay: cell-based or functional assay
hGCGR-hFc [8] = molecular target: T3, hGCGR-hFc; assay: SPR Biacore T100, 37C, mAb captured, antigen flowed
Description: as §1, §2

hGCGR-mmh [9] = molecular target: T1, hGCGR-mmh; assay: as above
Description: as §1, §2

mfGCGR-hFc [10] = molecular target: T4, mfGCGR-hFc; assay: as above
Description: as §1, §2

T4 sequence (chain, as listed by the source limits assumed): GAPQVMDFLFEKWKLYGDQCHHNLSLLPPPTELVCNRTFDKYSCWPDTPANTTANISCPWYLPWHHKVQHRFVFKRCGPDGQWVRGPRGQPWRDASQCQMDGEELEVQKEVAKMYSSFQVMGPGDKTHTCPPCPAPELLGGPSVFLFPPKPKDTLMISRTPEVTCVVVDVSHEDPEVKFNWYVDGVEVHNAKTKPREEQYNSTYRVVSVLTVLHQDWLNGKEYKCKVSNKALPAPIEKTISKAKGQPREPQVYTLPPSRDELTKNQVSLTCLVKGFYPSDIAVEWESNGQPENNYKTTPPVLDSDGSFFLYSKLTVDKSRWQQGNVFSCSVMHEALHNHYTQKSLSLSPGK
T3 sequence (chain, as listed by the source limits assumed): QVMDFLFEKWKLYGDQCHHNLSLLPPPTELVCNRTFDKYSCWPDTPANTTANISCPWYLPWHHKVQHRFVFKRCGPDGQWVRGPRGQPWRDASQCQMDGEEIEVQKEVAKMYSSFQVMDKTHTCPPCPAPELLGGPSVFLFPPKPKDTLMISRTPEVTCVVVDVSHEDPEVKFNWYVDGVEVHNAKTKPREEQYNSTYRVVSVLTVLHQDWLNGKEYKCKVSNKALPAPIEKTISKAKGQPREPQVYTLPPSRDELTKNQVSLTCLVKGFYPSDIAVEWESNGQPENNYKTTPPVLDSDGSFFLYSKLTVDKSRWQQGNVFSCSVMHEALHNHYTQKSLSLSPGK
Sequence of human GCGR (full-length, on HEK293 reporter cells) (P47871 27-477): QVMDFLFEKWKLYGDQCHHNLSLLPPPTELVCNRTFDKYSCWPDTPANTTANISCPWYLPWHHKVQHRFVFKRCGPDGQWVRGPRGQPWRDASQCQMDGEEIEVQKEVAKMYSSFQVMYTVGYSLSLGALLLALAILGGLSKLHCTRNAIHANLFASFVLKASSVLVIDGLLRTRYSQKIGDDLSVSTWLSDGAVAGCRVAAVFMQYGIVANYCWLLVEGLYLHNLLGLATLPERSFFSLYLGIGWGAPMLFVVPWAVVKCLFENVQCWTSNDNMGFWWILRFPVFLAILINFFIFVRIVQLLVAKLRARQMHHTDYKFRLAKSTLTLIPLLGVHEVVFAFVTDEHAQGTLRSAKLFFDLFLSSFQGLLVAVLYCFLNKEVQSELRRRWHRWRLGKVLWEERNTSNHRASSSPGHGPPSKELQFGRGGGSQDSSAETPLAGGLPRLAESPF
Sequence of mouse GCGR (full-length, on HEK293 reporter cells) (Q61606 27-485 limits assumed): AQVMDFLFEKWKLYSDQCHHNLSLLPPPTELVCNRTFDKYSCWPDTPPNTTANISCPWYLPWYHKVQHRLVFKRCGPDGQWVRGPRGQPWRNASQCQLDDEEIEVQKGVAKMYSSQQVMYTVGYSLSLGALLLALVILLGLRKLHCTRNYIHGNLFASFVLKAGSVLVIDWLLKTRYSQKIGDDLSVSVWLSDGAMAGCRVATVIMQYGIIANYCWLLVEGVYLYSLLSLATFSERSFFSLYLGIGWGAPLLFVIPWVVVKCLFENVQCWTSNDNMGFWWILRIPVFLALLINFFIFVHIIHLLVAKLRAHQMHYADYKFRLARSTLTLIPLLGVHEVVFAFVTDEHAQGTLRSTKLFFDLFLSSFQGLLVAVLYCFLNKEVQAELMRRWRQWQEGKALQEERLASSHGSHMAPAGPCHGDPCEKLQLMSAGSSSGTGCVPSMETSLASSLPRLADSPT
Sequence of rat GCGR (full-length, on transiently transfected HEK293 reporter cells) (P30082 27-485 limits assumed): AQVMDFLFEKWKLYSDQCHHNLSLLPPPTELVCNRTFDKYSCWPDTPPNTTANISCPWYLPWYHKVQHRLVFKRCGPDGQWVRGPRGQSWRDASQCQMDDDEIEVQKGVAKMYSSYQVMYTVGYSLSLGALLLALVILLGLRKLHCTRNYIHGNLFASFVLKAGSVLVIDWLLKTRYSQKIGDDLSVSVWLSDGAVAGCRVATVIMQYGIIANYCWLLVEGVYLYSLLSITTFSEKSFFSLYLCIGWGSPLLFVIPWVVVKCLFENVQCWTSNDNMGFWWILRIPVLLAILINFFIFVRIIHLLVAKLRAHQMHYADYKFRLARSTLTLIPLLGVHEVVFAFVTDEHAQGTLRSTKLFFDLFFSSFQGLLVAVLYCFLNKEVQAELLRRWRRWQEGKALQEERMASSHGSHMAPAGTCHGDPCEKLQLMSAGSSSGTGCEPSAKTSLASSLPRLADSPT

Kd (hGCGR-hFc [1]) [nM] | T½ (hGCGR-hFc [1]) [h] | koff (hGCGR-hFc [1]) [s⁻¹] | kon (hGCGR-hFc [1]) [M⁻¹ s⁻¹] | Kd (hGCGR-mmh [2]) [nM] | T½ (hGCGR-mmh [2]) [h] | koff (hGCGR-mmh [2]) [s⁻¹] | kon (hGCGR-mmh [2]) [M⁻¹ s⁻¹] | Kd (mfGCGR-hFc [3]) [nM] | T½ (mfGCGR-hFc [3]) [h] | koff (mfGCGR-hFc [3]) [s⁻¹] | kon (mfGCGR-hFc [3]) [M⁻¹ s⁻¹] | IC50, inhibition of 100 pM GCG-stimulated luciferase activity, hGCGR reporter cells [4] [nM] | IC50, inhibition of 100 pM GCG-stimulated luciferase activity, rat GCGR reporter cells [5] [nM] | IC50, inhibition of 100 pM GCG-stimulated luciferase activity, mfGCGR reporter cells [6] [nM] | IC50, inhibition of 100 pM GCG-stimulated luciferase activity, mGCGR reporter cells [7] [nM] | Kd (hGCGR-hFc [8]) [nM] | T½ (hGCGR-hFc [8]) [h] | koff (hGCGR-hFc [8]) [s⁻¹] | kon (hGCGR-hFc [8]) [M⁻¹ s⁻¹] | Binder | also measured
0.238 | 0.683 | 0.000285 | 1.2e+06 | 3.54 | 0.05 | 0.00374 | 1.06e+06 | 0.0238 | 4.6 | 4.18e-05 | 1.76e+06 | 0.27 | 1.21 | 4.03 | 1.13 | 0.077 | 1.77 | 0.000109 | 1.41e+06 | H4H1321P (antibody, V domains shown, Fully human anti-GCGR antibody; the controls are called isotype-matched hIgG4) VH: QVQLVESGGGVVQPGRSLRLSCAASGFTFSSYDMHWVRQAPGKGLEWVAVISSDGRDKYYVDSVKGRFTISRDNSKNTLYLQMNSLRAEDTAVYYCAKEMVYYDILTGYHNYYGMDVWGQGTTVTVS VL: DIQMTQSPSSLSASVGDRVTITCRASQGINNYLAWFQQKPGKAPKSLIHTASSLQSGVPSKFSGSGSGTDFTLTISSLQPEDFATYYCQQYNTYPLTFGGGTKVEIK | Kd (hGCGR-mmh [9]): 12.8 nM; T½ (hGCGR-mmh [9]): 1 min; koff (hGCGR-mmh [9]): 0.0202 s⁻¹; kon (hGCGR-mmh [9]): 1.58e+06 M⁻¹ s⁻¹; Kd (mfGCGR-hFc [10]): 0.0347 nM; T½ (mfGCGR-hFc [10]): 2.53 h; koff (mfGCGR-hFc [10]): 7.59e-05 s⁻¹; kon (mfGCGR-hFc [10]): 2.19e+06 M⁻¹ s⁻¹
0.0618 | 3.1 | 6.2e-05 | 1e+06 | 0.825 | 0.367 | 0.000532 | 645000 | 0.0182 | 8.43 | 2.28e-05 | 1.26e+06 | 0.46 | 0.97 | 2.85 | 1.6 | 0.318 | 0.517 | 0.000371 | 1.17e+06 | H4H1339P (antibody, V domains shown, Fully human anti-GCGR antibody; the controls are called isotype-matched hIgG4) VH: EVQLVESGGGMVQPGGSLRLSCAASGFTSSNYDMHWVRQATGKGLEWVSSIDTAGDTYYPDSVKGRFIISRENAKNSLYLQMNSLRAGDTAVYYCTREPRNYEILTGHYHYHGMDIWGQGTTVTVS VL: AIQMTQSPSSLSASVGDRVTITCRASQAIRNDLGWYQQKPGKAPKLLIYTAFSLQSGVPSRFSGSKSGTDFTLTISSLQPEDFATYYCLQDYTNPRTFGQGTKVEIK | Kd (hGCGR-mmh [9]): 4.91 nM; T½ (hGCGR-mmh [9]): 3 min; koff (hGCGR-mmh [9]): 0.0043 s⁻¹; kon (hGCGR-mmh [9]): 876000 M⁻¹ s⁻¹; Kd (mfGCGR-hFc [10]): 0.0631 nM; T½ (mfGCGR-hFc [10]): 1.8 h; koff (mfGCGR-hFc [10]): 0.000107 s⁻¹; kon (mfGCGR-hFc [10]): 1.69e+06 M⁻¹ s⁻¹
